Reference: the nanobody polyreactivity screen of Harvey et al. (2022)

Experiment: yeast display, Sf9 membrane polyspecificity reagent, FACS + sequencing; frameworks hold sequencing errors
Method in brief: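 Galactose-induced (36–48 hours) yeast carrying a synthetic nanobody display library were exposed to 10% biotinylated, detergent-solubilized Sf9 membrane reagent at 4 °C for 1 hour. FACS followed streptavidin microbead enrichment, using low and high (top ~1%) gates for expression (anti-HA) and reagent binding (streptavidin). Colony PCR, MiSeq 2 × 250 sequencing and CDR-length filtering followed. Labels for polyreactivity reflect the gate of origin.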

| Sequence | polyreactivity (PSR sort gate) |
| --- | --- |
| QVQLVESGGGLVQAGGSLRLSCAASGSTFGWYGMGWYRQAPGKERELVASIRWSGGITYYADSVKGRFTISRDNAKNTVYLQMNSLKPEDTAVYSCAARTYRYFGRYDYWGQGTQVTVSS | high polyreactivity |
| QVQLVESGGGLVQAGGSLRLSCAASGSTFGYNAMGWYRQAPGKERELVAAISYSGGSTSYADSVKGRFTLSRDNEKNTVYVQMNSLKPVDAAVYYCARESYSQYSSQALEGYGYWGQGTQVTVSS | low polyreactivity |
| QVQLVESGGGLVQAGGSLRLSCAASGSTFGYNGMGWYRQAPGKERELVAAISGGARTYADSVKGRFTISRDNAKNTVYLQMNSLKPEDTAVYYCAADSPVSVTADDGYWGQGTQVTVSS | low polyreactivity |
| QVQLVESGGGLVQAGGSLRLSCAASGSTFGYNTMGWYRQAPGKERELVASITGRGGSTYYADSVKGRFTISRDNAKNTVYLQMNSLKPEDTAVYYCAAAWKAYRRYGYWGQGTQVTVSS | high polyreactivity |
| QVQLVESGGGLVQAGGSLRLSCAASGSTFGYNTMGWYRQAPGKEREWVAAITGTGRTNYADSVKGRFTISRDNAKNTVYLQMNSLKPEDTAVYYCAASLWQRAIGRYEYWGQGTQVTVSS | high polyreactivity |
| QVQLVESGGGLVQAGGSLRLSCAASGSTFGYYAMGWYRQAPGKERELVAAINSGDSTSYAESVKGRFTISRDNAKNTVYLQMNSLKPEDTAVYYCAVRPRRHQYGYWGQGTQVTVSS | low polyreactivity |
| QVQLVESGGGLVQAGGSLRLSCAASGSTFGYYAMGWYRQAPGKERELVAAISVRGGRTYYADSVKGRFTISRDNAKNTVYVQMKSLKPEDTAVYYCATLLPGLGRYGYDYWGQGTQVTVSS | high polyreactivity |
| QVQLVESGGGLVQAGGSLRLSCAASGSTFGYYAMGWYRQAPGKERELVAAITSGGSTYYADSVKGRFTISRDNAKNTVYLQMNSLKPEDTAVYYCNRTYYWYWRYDYWGQGTQVTVSS | low polyreactivity |
| QVQLVESGGGLVQAGGSLRLSCAASGSTFGYYAMGWYRQAPGKERELVASINWRGDSTYYADSVKGRFTISRDNAKNTVYLQMNSLKPEDTAVYYCNVKPSARGSPLYDYWGQGTQVTVSS | high polyreactivity |
| QVQLVESGGGLVQAGGSLRLSCAASGSTFGYYAMGWYRQAPGKERELVASISSRGGSTYYADSVKGRFTISRDNAKNTVYLQMNSLKPEDTAVYSCAARYGGFPVPGRYNYWGQGTQVTVSS | high polyreactivity |
| QVQLVESGGGLVQAGGSLRLSCAASGSTFGYYAMGWYRQAPGKERELVATINRSGGSTYYADSVKGRFTISRDNAKYTVYLQMNSLKPEDTAVYYCNKLAYAGFRYIGSGYWGQGTQVTVSS | low polyreactivity |
| QVQLVESGGGLVQAGGSLRLSCAASGSTFGYYAMGWYRQAPGKERELVATITIGGSTHYADSVKGRFTISRDNAKNTVYLQMNSLKPEDTAVYYCAARYAYYTARYTQVKGLDYWGQGTQVTVSS | high polyreactivity |
| QVQLVESGGGLVQAGGSLRLSCAASGSTFGYYAMGWYRQAPGRERELVAAISYRSGSTYYADSVKGRFTISRDNAKNTVYLQMNSLKPEDTAVYYCAARFGRGSRYYYWGQGTQVTVSS | high polyreactivity |
| QVQLVESGGGLVQAGGSLRLSCAASGSTFGYYTMGWYRQAPGKERELVAAISGSGGRTYYADSVKGRFTISRDNAKKTVNLQMNSLKPEDTAVYYCAAEGRSDWGGDDYYWGQGTQVTVSS | low polyreactivity |
| QVQLVESGGGLVQAGGSLRLSCAASGSTFHANAMGWYRQAPGKERELVAAISRSGGSTNYADSVKGRFTISRDNAKNTVYLQMNSLKPEDTAVYYCAKRAWTGYGYYYWGQGTQVTVSS | high polyreactivity |
| QVQLVESGGGLVQAGGSLRLSCAASGSTFHFYAMGWYRQAPGKERELVASITSRGGNTHYADSVKGRFTISRDNAKNTVYLQMNSLKPEDTAVYYCAARGGWYGTYDYWGQGTQVTVSS | low polyreactivity |
| QVQLVESGGGLVQAGGSLRLSCAASGSTFHINAMGWYRQAPGKERELVADINWSGGSTYYADSVKGRFTISRDNAKNTVYLQMNSLKPEDTAVYYCAADVGVFTYSPYDAGEHDYWGQGTQVTVSS | low polyreactivity |
